Laboratory results from US20260250403A1 (BIOCYTOGEN PHARMACEUTICALS BEIJING, published 2026).
Numbering of substitutions follows the chain as printed. In names and notes the source's numbering stands.

B1: 12B5-IgG4-FLAA (antibody, V domains shown)
VH: QVQLVQSGPGLVKPSETLSLTCTVSGGSISYYYWSWIRQPPGKGLEWIGHISYSGSTNYNPSLKSRVTISEDTSKKQFSLKLDSVTAADTAVYYCAGGIVGARRGFDFWGQGTLVTVSS
VL: EIVMTQSPATLSLSPGERATLSCRASQSVSNNLAWYQQKPGQAPRLLIYDASNRAADIPARFSGSGSGTDFTLTISSLEPEDFAVYYCQQRNNWPPTFGQGTKVEIKR
notes: Rest: human IgG4 constant regions with FLAA mutations (F234A and L235A, EU numbering); copies: 2 + 2
B2: Bleselumab analog (antibody, human IgG4, V domains shown)
VH: QLQLQESGPGLLKPSETLSLTCTVSGGSISSPGYYGGWIRQPPGKGLEWIGSIYKSGSTYHNPSLKSRVTISVDTSKNQFSLKLSSVTAADTAVYYCTRPVVRYFGWFDPWGQGTLVTVSS
VL: AIQLTQSPSSLSASVGDRVTITCRASQGISSALAWYQQKPGKAPKLLIYDASNLESGVPSRFSGSGSGTDFTLTISSLQPEDFATYYCQQFNSYPTFGQGTKVEIKR
B3: 2F8-IgG4-FLAA (antibody, V domains shown)
VH: EVQLVQSGGGVVQPGRSLRLSCAASGFSFSSYAMHWVRQVPGKGLEWVSVISYDGDNKYHAESVKGRFTISRDNSKNILYLQMNSLRPEDTAVYYCARRGTVTNYYSYSGLDVWGQGTTVTVSS
VL: DIQLTQSPLSLPVTPGEPASISCRSSQSLLYSNGKNYLDWYLQKPGQSPQLLIYLASNRASGVPDRFSGSGSGTDFTLKISRVEAEDVGVYFCMQALQTPRTFGQGTKVEIKR
notes: Rest: human IgG4 constant regions with FLAA mutations (F234A and L235A, EU numbering)
B4: 6A4-IgG4-FLAA (antibody, V domains shown)
VH: QVQLVQSGGGLVQPGGSLRLSCAASGFTFSNYVMSWVRQAPGKGLEWVSTIRGSGISTYYTDSVKGRFTTSRDNPKNTLFLQMSSLRAEDTAVYYCAKGIVGATTPFDYWGQGTLVTVSS
VL: B1 VL with M4L, S30R, N31S, N32F, D50E, A51T, A56T, D57G, N92S, N93D
notes: as for B3

target: hFcRn-His (FCGRT&B2M Heterodimer Protein, His Tag&Strep II Tag, Beijing ACROBiosystems Co. Ltd., Cat #: FCM-H5286) (human) (UniProt P61769); assay: SPR, Biacore 8K or T200, Protein A chip, steady state affinity model, pH 6.0; pH 6.0
Sequence (chain, as listed by the source limits assumed, chain 1 of 2): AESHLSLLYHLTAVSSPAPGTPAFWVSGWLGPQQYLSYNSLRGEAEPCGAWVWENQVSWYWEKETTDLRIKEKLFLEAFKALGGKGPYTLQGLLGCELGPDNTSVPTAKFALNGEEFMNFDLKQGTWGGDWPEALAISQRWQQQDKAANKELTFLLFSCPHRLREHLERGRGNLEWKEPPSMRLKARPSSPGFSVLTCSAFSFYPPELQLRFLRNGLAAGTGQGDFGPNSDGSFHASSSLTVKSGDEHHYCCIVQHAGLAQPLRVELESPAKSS
Sequence (P61769 21-119 limits assumed, chain 2 of 2): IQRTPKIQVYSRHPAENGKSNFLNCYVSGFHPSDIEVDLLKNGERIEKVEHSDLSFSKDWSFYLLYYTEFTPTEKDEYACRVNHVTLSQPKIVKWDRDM

Binder	Kd [nM]
B1	497

target: T1, hCD40-His (Human CD40 protein having a His-Tag, Beijing ACROBiosystems Co. Ltd., Cat #: CD0-H5228) (human, UniProt P25942 21-193); assay: SPR, Biacore 8K, Protein A chip, CD40-His as analyte, 1:1 Langmuir fit
T1 construct: Bought protein; not shown: His tag
T1 sequence (P25942 21-193 limits assumed): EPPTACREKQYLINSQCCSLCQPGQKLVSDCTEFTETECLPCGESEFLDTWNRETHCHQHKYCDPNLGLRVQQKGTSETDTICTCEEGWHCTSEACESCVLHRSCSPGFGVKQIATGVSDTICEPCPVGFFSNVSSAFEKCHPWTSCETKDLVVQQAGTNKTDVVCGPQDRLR
Protocol: (§1) Purified anti-CD40 antibodies at concentrations of 1 μg/ml with 1×HBS-EP+ buffer (PH 7.4) were then injected at 1 μl/min for 50 seconds. Dissociation was monitored for 400 seconds. The chip was regenerated after the last injection of each titration with a glycine solution (pH 2.0) at 30 μl/min for 30 seconds.

Binder	Kd [nM]	koff [s⁻¹]	kon [M⁻¹ s⁻¹]
B2	1.59	0.000682	429000
B3	0.351	0.000229	654000
B1	0.735	0.000389	529000
B4	1.66	0.000511	309000

target: T2, dCD40-His (CD40 Protein, Canine, Recombinant (His Tag), Sino Biological Inc., Cat #: 70105-D08H) (dog, UniProt Q7YRL5 21-194); assay: as above
T2 construct: Bought protein; also called dog CD40; not shown: His tag
T2 sequence (looked up): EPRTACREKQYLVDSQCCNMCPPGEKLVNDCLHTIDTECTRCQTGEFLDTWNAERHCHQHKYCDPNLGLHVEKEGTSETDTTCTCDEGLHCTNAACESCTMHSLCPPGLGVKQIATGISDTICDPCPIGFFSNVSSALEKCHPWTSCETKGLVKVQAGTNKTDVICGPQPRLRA
Protocol: as §1

Binder	Kd [nM]	koff [s⁻¹]	kon [M⁻¹ s⁻¹]
B3	5.18	0.00266	513000
B1	32.1	0.0129	401000

target: T3, fasCD40-His (Cynomolgus CD40/TNFRSF5 Protein, His Tag, Beijing ACRO Biosystems Co. Ltd., Cat #: CD0-C52H6) (Macaca fascicularis, UniProt G7PG38 21-193); assay: as above
T3 construct: Bought protein; also called monkey (Macaca fascicularis) CD40; not shown: His tag
Protocol: as §1

Binder	Kd [nM]	koff [s⁻¹]	kon [M⁻¹ s⁻¹]
B2	3.35	0.000907	270000
B3	0.301	0.000297	989000
B1	0.495	0.000265	535000
B4	51.7	0.0149	288000
